According to patent publication US20070026428A1:

Legend:
Experiment in all cases: cell-based or functional assay
[1] = target: ced-3(p15)::nz, CED-3 small subunit p15 with the NZ anti-parallel leucine zipper at its C-terminus (C. elegans) (UniProt P42573)
[2] = target: cz::ced-3(p15), CED-3 small subunit with the CZ leucine zipper at its N-terminus (opposite orientation) (C. elegans) (UniProt P42573)
[3] = target: Caspase-3(p12)::nz, human Caspase-3 small subunit p12 with the NZ anti-parallel leucine zipper at its C-terminus (human) (UniProt P42574)

**Q.** Which % GFP positive cells in L1 larvae, ced-3(n717) background [1] does the source give for “cz::ced-3(p17), CED-3 large subunit p17 with the CZ anti-parallel leucine zipper at its N-terminus (from UniProt P42573 222-374)” here?
**A.** 5.9%

**Q.** What about the % GFP positive cells in L1 larvae, ced-8(n1891) background [1] of the same molecule?
**A.** 21.9%

**Q.** And the % GFP positive cells in adults, ced-3(n717) background [1]?
**A.** 5.1%

**Q.** What about the % GFP positive cells in adults, ced-8(n1891) background [1] of the same molecule?
**A.** 4.5%

**Q.** What about the % GFP positive cells in adults, recCED-3(uIs37) [1] of the same molecule?
**A.** 5.4%

**Q.** What about the death of touch sensory neurons monitored by the loss of GFP fluorescence, extrachromosomal arrays [1] of the same molecule?
**A.** > 60%

**Q.** And the death of touch sensory neurons, integrated lines [1]?
**A.** > 95%

**Q.** How did the % GFP positive touch cells (surviving cells), zippers in the opposite orientation [2] turn out when “ced-3(p17)::nz, CED-3 large subunit with the NZ leucine zipper at its C-terminus (opposite orientation) (from UniProt P42573 222-374)” was run?
**A.** 96%

B1: cz::Caspase-3(p17), human Caspase-3 large subunit p17 with the CZ anti-parallel leucine zipper at its N-terminus (protein, part only; not given: Exact insert limits, part only)
chain, part: GGSGMENTENSVDSKSIKNLEPKIIHGSESMDSGISLDNSYKMDYPEMGLCIIINNKNFHKSTGMTSRSGTDVDAANLRETFRNLKYEVRNKNDLTREEIVELMRDVSKEDHSKRSSFVCVLLSHGEEGIIFGTNGPVDLKKITNFFRGDRCRSLTGKPKLFIIQACRGTELDCGIETD
**Q.** Which results are given for B1?
**A.** % GFP positive cells in adults, ced-3(n717) background [3]: 1%; % GFP positive cells in adults, recCaspase-3(uIs40) [3]: 0.9%; % of YFP positive HeLa cells with nuclear YFP (caspase-sensing EYFP vector) after doxycycline induction [3]: 30 to 40%; animals completely or partially paralyzed within three hours after induction of heat shock, hsp-16 and myo-3 promoters [3]: > 50%; animals completely paralyzed within 12 hours after heat shock, hsp-16 and myo-3 promoters [3]: 100%; apoptotic death of touch sensory neurons in C. elegans, extrachromosomal arrays [3]: 80%; death of touch receptor neurons in C. elegans, integrated DNA [3]: 100%; killing of embryonically derived ALM and PLM touch neurons after heat shock in the embryo, hsp-16 and mec-18 promoters [3]: > 90%; paralysis of animals (death of body wall muscle cells) after heat shock, hsp-16 and myo-3 promoters [3]: > 90%
